Biological target: the molecule itself
Experiment: negative stain EM

B1: Drosophila Arc homologue dArc1 (natural protein, UniProt Q7K1U0 1-254, looked up)
chain: MAQLTQMTNEQLRELIEAVRAAAVGAAGSAAAAGGADASRGKGNFSACTHSFGGTRDHDVVEEFIGNIETYKDVEGISDENALKGISLLFYGMASTWWQGVRKEATTWKEAIALIREHFSPTKPAYQIYMEFFQNKQDDHDPIDTFVIQKRALLAQLPSGRHDEETELDLLFGLLNIKYRKHISRHSVHTFKDLLEQGRIIEHNNQEDEEQLATAKNTRGSKRTTRCTYCSFRGHTFDNCRKRQKDRQEEQHEE
B1: binds.

Source: paper PMC5884693 (Cell, 2018)
